Columns and labels:
Assay in all cases: cell-based or functional assay
[1] = biological target: HIV-1 Env of isolate MGRM-AE-007 (subtype AE) (HIV-1)
[2] = biological target: HIV-1 envelope glycoprotein (Env) of isolate MGRM-C-013 (HIV-1)
[3] = biological target: HIV-1 Env of isolate MGRM-A-002 (HIV-1)
[4] = biological target: HIV-1 Env of isolate MGRM-AG-001 (subtype AG) (HIV-1)
[5] = biological target: HIV-1 Env of isolate MGRM-Chronic-B-004 (subtype B) (HIV-1)
[6] = biological target: HIV-1 Env of isolate NL43 (subtype B) (HIV-1)
[7] = biological target: HIV-1 Env of isolate 92UG037 (HIV-1)
[8] = biological target: HIV-1 envelope glycoprotein (Env) of isolate MGRM-C-019 (HIV-1)
[9] = biological target: HIV-1 Env of isolate MGRM-AG-002 (subtype AG) (HIV-1)
[10] = biological target: HIV-1 Env of isolate MGRM-Chronic-B-017 (subtype B) (HIV-1)
[11] = biological target: HIV-1 Env of isolate 6535.3 (HIV-1)
[12] = biological target: HIV-1 Env of isolate 92WR024 (HIV-1)
[13] = biological target: HIV-1 Env of isolate MGRM-F1-020 (HIV-1)
[14] = biological target: HIV-1 Env of isolate MGRM-D-004 (pseudovirus) (HIV-1)
[15] = biological target: HIV-1 Env of isolate 92UG005 (clade D), on pseudovirus (HIV-1)
[16] = biological target: HIV-1 JRFL Env (pseudovirus, clade B) (HIV-1)
[17] = biological target: HIV-1 Env of isolate MGRM-Chronic-B-023 (subtype B pseudovirus) (HIV-1)
[18] = biological target: HIV-1 Env of isolate MGRM-D-012 (pseudovirus) (HIV-1)
[19] = biological target: HIV-1 Env of isolate MGRM-F1-014 (HIV-1)
[20] = biological target: HIV-1 Env of isolate MGRM-Chronic-B-012 (subtype B pseudovirus) (HIV-1)
[21] = biological target: HIV-1 Env of isolate APV_6 (subtype B pseudovirus) (HIV-1)
[22] = biological target: HIV-1 Env of isolate VLGCB3 (subtype B pseudovirus) (HIV-1)
[23] = biological target: HIV-1 93IN905 Env (pseudovirus, clade C) (HIV-1)
[24] = biological target: HIV-1 Env of isolate MGRM-F1-018 (HIV-1)
[25] = biological target: HIV-1 Env of isolate THR0.18 (subtype B pseudovirus) (HIV-1)
[26] = biological target: HIV-1 Env of isolate MGRM-AG-005 (clade AG), on pseudovirus (HIV-1)
[27] = biological target: HIV-1 94UG103 Env (pseudovirus, clade A) (HIV-1)
[28] = biological target: HIV-1 envelope glycoprotein (Env) of isolate MGRM-A-007, clade A (HIV-1)
[29] = biological target: HIV-1 Env of pseudovirus MGRM-F1-018 (HIV-1)
[30] = biological target: HIV-1 Env of pseudovirus MGRM-G-011 (HIV-1, clade G isolate MGRM-G-011)
[31] = biological target: HIV-1 Env of pseudovirus MGRM-G-009 (clade G) (HIV-1)
[32] = biological target: HIV-1 Env of pseudovirus MGRM-Chronic-B-010 (HIV-1)
[33] = biological target: HIV-1 envelope glycoprotein (Env) of isolate 93RW029, clade A (HIV-1)
[34] = biological target: HIV-1 Env of pseudovirus MGRM-AG-005 (clade CRF_AG) (HIV-1)
[35] = biological target: HIV-1 Env of isolate MGRM-D-028 (clade D pseudovirus) (HIV-1)
[36] = biological target: HIV-1 Env of pseudovirus MGRM-AG-001 (clade CRF_AG) (HIV-1)
[37] = biological target: HIV-1 Env of isolate APV_6, clade B, on pseudovirus (HIV-1)
[38] = biological target: aMLV envelope protein on pseudovirus (negative control)

Sequence of 5329_C19 (PGT-136) (antibody) (VH): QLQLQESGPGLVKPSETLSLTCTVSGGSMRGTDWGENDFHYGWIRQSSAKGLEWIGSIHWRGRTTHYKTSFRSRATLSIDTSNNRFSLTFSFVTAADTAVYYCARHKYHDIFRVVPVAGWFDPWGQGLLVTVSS
Sequence of 5329_C19 (PGT-136) (antibody) (VL): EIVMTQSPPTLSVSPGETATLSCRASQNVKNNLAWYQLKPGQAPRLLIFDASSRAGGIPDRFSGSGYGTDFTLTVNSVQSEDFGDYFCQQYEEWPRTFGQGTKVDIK
Sequence of 5345_I01 (PGT-137) (antibody) (VH): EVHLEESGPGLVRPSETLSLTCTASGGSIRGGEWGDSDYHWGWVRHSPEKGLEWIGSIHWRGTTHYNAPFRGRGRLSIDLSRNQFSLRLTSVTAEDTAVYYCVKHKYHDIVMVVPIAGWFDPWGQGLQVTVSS
Sequence of 5345_I01 (PGT-137) (antibody) (VL): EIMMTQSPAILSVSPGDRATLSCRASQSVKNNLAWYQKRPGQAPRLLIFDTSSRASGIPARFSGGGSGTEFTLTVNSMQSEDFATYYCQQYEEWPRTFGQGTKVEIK

Substance | IC50 (µg/mL), pseudovirus neutralization [1] | IC50 (µg/mL), pseudovirus neutralization [2] | IC50 [3] | IC50 (µg/mL), pseudovirus neutralization [4] | IC50 neutralization [5] | IC50 neutralization [6] | IC50 [7] | IC50 (µg/mL), pseudovirus neutralization [8] | IC50 (µg/mL), pseudovirus neutralization [9] | IC50 neutralization [10] | neutralization IC50 [11] | IC50 [12] | IC50 (µg/mL), pseudovirus neutralization [13] | IC50, pseudovirus neutralization [14] | IC50, pseudovirus neutralization [15] | IC50 neutralization [16] | IC50 (µg/mL), pseudovirus neutralization [17] | IC50 neutralization [23] | IC50, pseudovirus neutralization [26] | IC50 neutralization [27] | also measured
5136_H01 (PGT-131) (antibody) | 0.026 µg/mL | > 50 µg/mL | > 50 µg/mL | > 50 µg/mL | 0.04 µg/mL | > 50 µg/mL | 0.048 µg/mL | 0.021 µg/mL | > 50 µg/mL | > 50 µg/mL | 0.056 µg/mL | > 50 µg/mL |  |  |  |  |  |  |  |  | 
4858_P08 (PGT-123) (antibody) |  |  |  |  |  |  |  |  |  |  |  |  | 0.051 µg/mL | > 50 µg/mL | 2.49 µg/mL | 0.0283 µg/mL | 0.055 µg/mL | 0.0071 µg/mL | 0.104 µg/mL | 0.846 µg/mL | IC50, pseudovirus neutralization [18]: > 50 µg/mL; IC50 (µg/mL), pseudovirus neutralization [19]: 0.111 µg/mL; IC50 (µg/mL), pseudovirus neutralization [20]: 0.227 µg/mL; IC50 (µg/mL), pseudovirus neutralization [21]: 0.023 µg/mL; IC50 (µg/mL), pseudovirus neutralization [22]: 0.004 µg/mL; IC50 (µg/mL), pseudovirus neutralization [24]: 0.054 µg/mL; IC50 (µg/mL), pseudovirus neutralization [25]: > 50 µg/mL
4877_D15 (PGT-122) (antibody) |  |  |  |  |  |  |  |  |  |  |  |  | 0.321 µg/mL | > 50 µg/mL | > 10 µg/mL | 0.0471 µg/mL | 0.01 µg/mL | 0.0138 µg/mL | > 10 µg/mL | 1.46 µg/mL | IC50, pseudovirus neutralization [18]: > 50 µg/mL; IC50 (µg/mL), pseudovirus neutralization [19]: 0.195 µg/mL; IC50 (µg/mL), pseudovirus neutralization [20]: 0.066 µg/mL; IC50 (µg/mL), pseudovirus neutralization [21]: 0.019 µg/mL; IC50 (µg/mL), pseudovirus neutralization [22]: 0.008 µg/mL; IC50 (µg/mL), pseudovirus neutralization [24]: 0.563 µg/mL; IC50 (µg/mL), pseudovirus neutralization [25]: > 50 µg/mL
5145_B14 (PGT-127) (antibody) |  |  |  |  |  |  |  |  |  |  |  |  | > 50 µg/mL | > 50 µg/mL |  |  | > 50 µg/mL |  |  |  | IC50, pseudovirus neutralization [18]: > 50 µg/mL; IC50 (µg/mL), pseudovirus neutralization [19]: > 50 µg/mL; IC50 (µg/mL), pseudovirus neutralization [20]: 0.075 µg/mL; IC50 (µg/mL), pseudovirus neutralization [21]: 0.04 µg/mL; IC50 (µg/mL), pseudovirus neutralization [22]: 0.022 µg/mL; IC50 (µg/mL), pseudovirus neutralization [24]: 3.59 µg/mL; IC50 (µg/mL), pseudovirus neutralization [25]: > 50 µg/mL
4838_L06 (PGT-121) (antibody) |  |  |  |  |  |  |  |  |  |  |  |  | 0.167 µg/mL | > 50 µg/mL | > 10 µg/mL |  | 0.005 µg/mL |  |  |  | IC50, pseudovirus neutralization [18]: > 50 µg/mL; IC50 (µg/mL), pseudovirus neutralization [20]: 0.036 µg/mL; IC50 (µg/mL), pseudovirus neutralization [21]: 0.018 µg/mL; IC50 (µg/mL), pseudovirus neutralization [22]: 0.005 µg/mL; IC50 (µg/mL), pseudovirus neutralization [24]: 0.04 µg/mL; IC50 (µg/mL), pseudovirus neutralization [25]: > 50 µg/mL
5123_A06 (PGT-125) (antibody) |  |  |  |  |  |  |  |  |  |  |  |  | > 50 µg/mL | 0.371 µg/mL | > 10 µg/mL | 0.0156 µg/mL | > 50 µg/mL | 0.0137 µg/mL | > 10 µg/mL | 0.0124 µg/mL | IC50, pseudovirus neutralization [18]: > 50 µg/mL; IC50 (µg/mL), pseudovirus neutralization [19]: > 50 µg/mL; IC50 (µg/mL), pseudovirus neutralization [20]: 0.036 µg/mL; IC50 (µg/mL), pseudovirus neutralization [21]: 0.021 µg/mL; IC50 (µg/mL), pseudovirus neutralization [22]: 0.015 µg/mL; IC50 (µg/mL), pseudovirus neutralization [24]: > 50 µg/mL; IC50 (µg/mL), pseudovirus neutralization [25]: > 50 µg/mL
5343_B08 (PGT-135) (antibody) | > 50 µg/mL | > 50 µg/mL | > 50 µg/mL | > 50 µg/mL | > 50 µg/mL | 8.03 µg/mL | 3.67 µg/mL | 0.264 µg/mL | > 50 µg/mL | > 50 µg/mL | > 50 µg/mL | > 50 µg/mL |  |  | > 10 µg/mL | > 10 µg/mL |  | 0.0183 µg/mL | > 10 µg/mL | > 10 µg/mL | 
1496_C09 (PG9) (TCN-109) (antibody) |  |  |  |  |  |  |  |  |  |  |  |  |  |  |  |  |  | 0.048 µg/mL |  | 0.31 µg/mL | IC50 (µg/ml), pseudovirus neutralization [28]: 0.37 µg/mL; IC50 (µg/ml), pseudovirus neutralization [29]: 0.03 µg/mL; IC50 (µg/ml), pseudovirus neutralization [30]: 0.19 µg/mL; IC50 [31]: 4.9 µg/mL; IC50 (µg/ml), pseudovirus neutralization [32]: 0.004 µg/mL; IC50 (µg/ml), pseudovirus neutralization [33]: 1.19 µg/mL; IC50 [34]: 29.7 µg/mL; IC50 (µg/ml), pseudovirus neutralization [35]: 4.39 µg/mL; IC50 [36]: 8.83 µg/mL; IC50 (µg/mL), pseudovirus neutralization [11]: 1.05 µg/mL; IC50 (µg/ml), pseudovirus neutralization [37]: 0.12 µg/mL
5345_I01 (PGT-137) (antibody) | > 50 µg/mL | > 50 µg/mL | > 50 µg/mL | > 50 µg/mL | > 50 µg/mL | 17.4 µg/mL | > 50 µg/mL | > 50 µg/mL | > 50 µg/mL | > 50 µg/mL | > 50 µg/mL | > 50 µg/mL |  |  |  |  |  |  |  |  | 
VRC01 (antibody) |  |  |  |  |  |  |  |  |  |  |  |  |  |  |  |  |  |  |  |  | IC50 [13]: 1.89 µg/mL; IC50 [19]: 0.056 µg/mL; IC50 [24]: 0.032 µg/mL
5114_A19 (PGT-128) (antibody) | > 50 µg/mL | > 50 µg/mL | 0.149 µg/mL | 4.73 µg/mL | 0.009 µg/mL | > 50 µg/mL | 0.006 µg/mL | 0.01 µg/mL | 4.99 µg/mL | > 50 µg/mL | 0.011 µg/mL | > 50 µg/mL |  |  |  |  |  |  |  |  | 
5141_B17 (PGT-126) (antibody) |  |  |  |  |  |  |  |  |  |  |  |  | > 50 µg/mL | > 50 µg/mL | 0.0181 µg/mL | 0.014 µg/mL | > 50 µg/mL | 0.0194 µg/mL | 1.35 µg/mL | 0.0091 µg/mL | IC50, pseudovirus neutralization [38]: > 10 µg/mL; IC80 (pseudovirus neutralization) [38]: > 10 µg/mL; IC90 (pseudovirus neutralization) [38]: > 10 µg/mL; IC95 (pseudovirus neutralization) [38]: > 10 µg/mL; IC50, pseudovirus neutralization [18]: > 50 µg/mL; IC50 (µg/mL), pseudovirus neutralization [19]: > 50 µg/mL; IC50 (µg/mL), pseudovirus neutralization [20]: 0.027 µg/mL; IC50 (µg/mL), pseudovirus neutralization [21]: 0.007 µg/mL; IC50 (µg/mL), pseudovirus neutralization [22]: 0.007 µg/mL; IC50 (µg/mL), pseudovirus neutralization [24]: 14.9 µg/mL; IC50 (µg/mL), pseudovirus neutralization [25]: > 50 µg/mL
5329_C19 (PGT-136) (antibody) | > 50 µg/mL | > 50 µg/mL | > 50 µg/mL | > 50 µg/mL | > 50 µg/mL | 27.7 µg/mL | > 50 µg/mL | 20.1 µg/mL | > 50 µg/mL | > 50 µg/mL | > 50 µg/mL | > 50 µg/mL |  |  | > 10 µg/mL | > 10 µg/mL |  | 0.0135 µg/mL | > 10 µg/mL | > 10 µg/mL | 
5147_N06 (PGT-130) (antibody) | 0.083 µg/mL | > 50 µg/mL | 0.01 µg/mL | > 50 µg/mL | 0.01 µg/mL | > 50 µg/mL | 0.061 µg/mL | 0.01 µg/mL | > 50 µg/mL | > 50 µg/mL | 0.031 µg/mL | > 50 µg/mL |  |  | 0.474 µg/mL | 0.0346 µg/mL |  | 0.0182 µg/mL | 0.947 µg/mL | 0.635 µg/mL | 
PGV04 (antibody) |  |  |  |  |  |  |  |  |  |  |  |  |  |  |  |  |  |  |  |  | IC50 (µg/mL), pseudovirus neutralization [15]: 0.44 µg/mL; IC50 (µg/mL), pseudovirus neutralization [11]: 0.757 µg/mL
